Reference: article PMC6239170

Tests used:
IMP3 RRM12 Y5A = IMP3 RRM12 Y5A (UniProt O00425 1-161, Y5A); experiment: ITC
IMP3 RRM12 = IMP3 RRM12 (UniProt O00425 1-161); experiment: ITC
IMP3 RRM12, sequence (O00425 1-161): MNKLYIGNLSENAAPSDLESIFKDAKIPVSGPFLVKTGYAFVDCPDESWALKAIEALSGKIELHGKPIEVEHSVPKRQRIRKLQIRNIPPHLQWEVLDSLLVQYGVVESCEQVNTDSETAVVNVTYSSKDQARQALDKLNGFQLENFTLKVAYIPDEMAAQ

IMP3 RRM12 Y5A, sequence (O00425 1-161 Y5A): as the sequence (O00425 1-161) above, with Y5A counted along it

Binder | binding result (IMP3 RRM12 Y5A) | binding result (IMP3 RRM12)
ACAC (ssRNA) | no binding | –
UUUU (ssRNA) | – | no binding
GGGG (ssRNA) | – | no binding
